Assay results from patent US20110236380A1 (published 2011).
Substitutions are numbered along the chain they refer to.

B1: DOM10-53-567 (other)
VH: GVQLLESGGGLVQPGGSLRLSCAASGFVFAWYDMGWVRQAPGKGLEWVSSIDWHGEVTYYADSVKGRFTISRDNSKNTLYLQMNSLRAEDTAVYYCATAEDEPGYDYWGQGTLVTVSS
B2: DOM10-53-616 (other)
VH: B1 VH with A30P, E56K, V57I
B3: DOM10-53-568 (other)
VH: B1 VH with E56K, V57I
B4: DOM10-53-546 (other)
VH: B1 VH with A30P, H54K, E56G, V57K
B5: DOM10-53-474 (other)
VH: B1 VH with V28T
notes: Anti-IL-13 immunoglobulin single variable domain (dAb), monomer

Biological target: rhesus IL-13 (rhesus, UniProt Q864V6 19-132, limits assumed)
Sequence (Q864V6 19-132 limits assumed): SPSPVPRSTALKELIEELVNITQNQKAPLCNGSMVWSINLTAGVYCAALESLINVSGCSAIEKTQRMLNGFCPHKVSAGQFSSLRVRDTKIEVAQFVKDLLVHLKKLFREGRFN
Experiment: cell-based or functional assay

HEK assay Rhesus EC50	Binder
2.8 nM	B1
7.6 nM	B2
8.1 nM	B3
11.4 nM	B4
30.2 nM	B5

Biological target: T1, human IL-13 (human, UniProt P35225 35-146, limits assumed)
T1 sequence (P35225 35-146 limits assumed): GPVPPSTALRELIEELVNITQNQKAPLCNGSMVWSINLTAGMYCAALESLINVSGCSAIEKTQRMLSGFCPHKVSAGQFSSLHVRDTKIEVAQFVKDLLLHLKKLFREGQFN
Experiment: cell-based or functional assay

HEK assay Human EC50	Binder
0.31 nM	B1
2.9 nM	B2
0.62 nM	B3
1 nM	B4
2 nM	B5

Biological target: T2, Cynomolgus monkey IL-13 (cynomolgus monkey, UniProt Q0PW92 21-132)
T2 sequence (Q0PW92 entry or part of it): as the sequence (P35225 35-146 limits assumed) above, with G1S, R10K, M42V, S67N, H83R, L100V counted along it
Experiment: cell-based or functional assay

HEK assay Cyno EC50	Binder
5.1 nM	B1
5.9 nM	B2
8.8 nM	B3
5.9 nM	B4
30.1 nM	B5

Biological target: T1, human IL-13
Experiment: Biacore SPR, biotinylated IL-13 on streptavidin chip, dAb as analyte, 1:1 model, 25 C
Experimental: (§1) The binding affinities of purified DOM10 dAbs to both human and cyno IL-13 were assessed by Biacore analysis. Analysis was carried out using biotinylated IL-13. About 150 RU of biotinylated IL-13 was coated to a streptavidin (SA) chip (Biacore, GE healthcare). The surface was regenerated back to baseline using 0.1 M Glycine pH 2. dAbs were passed over this surface at defined concentrations using a flow rate of 50 μl/min. Data were analyzed using BIAevaluation software (Biacore, GE Healthcare) and fitted to the 1:1 model of binding. The binding data fitted well to the 1:1 model for all DOM10 dAbs. Biacore runs were carried out at 25° C.

Kd	Binder
0.072 nM	B1
0.13 nM	B2
0.07 nM	B3
0.094 nM	B4
0.259 nM	B5

Biological target: T2, Cynomolgus monkey IL-13
Experiment: as above
Experimental: as §1

Kd	Binder
2.6 nM	B1
3.2 nM	B2
1.6 nM	B3
2.1 nM	B4
9.3 nM	B5

Biological target: T1, human IL-13
Experiment: DOM10 sandwich ELISA: dAb dilution series mixed with 150 pg/ml human IL-13, loss of IL-13 detection by the kit antibodies
Experimental: dAbs were also tested in DOM10 ELISA to assess the potency against human IL-13 and cell based HEK Blue-STAT6 (HEK STAT) assays to assess the potency against human, cyno and Rhesus IL-13. DOM10 ELISA measures the ability of DOM10 dAbs to bind IL-13 and prevent its binding to an IL-13 detection antibody. A MAXISORP™ plate (high protein binding ELISA plate, Nunc, Denmark) is coated overnight with 2.5 μg/ml coating antibody (Module Set, Bender MedSystems, Vienna, Austria), then washed once with 0.1% (v/v) Tween 20 in PBS before blocking with 0.5% (w/v) BSA 0.05% (v/v) Tween 20 in PBS for 2 hours at room temperature. The plate is washed twice as previously detailed before the addition of 150 pg/ml IL-13 (GSK) mixed with a dilution series of DOM10 dAb (i.e., an anti-IL-13 dAb) and incubated for 1 hour. The plate is washed twice before binding of IL-13 to the capture antibody is detected using biotin conjugated detection antibody (Module Set, Bender Medsystems), followed by peroxidase labelled Streptavidin (Module Set, Bender MedSystems). Finally the plate is washed three times before incubation with TMB substrate (KPL, Gaithersburg, USA), and the reaction stopped by the addition of HCl and the absorbance read at 450 nm. Anti-IL-13 dAb activity causes a decrease in IL-13 binding and therefore a decrease in absorbance compared with the IL-13 only control.

EC50	Binder
0.021 nM	B1
0.048 nM	B2
0.125 nM	B4
0.217 nM	B5
